Laboratory results as given in the supplement of paper PMC10126150.
± gives the standard deviation of the averaged measurements.
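Further: ATP exposure 15 min at 22 °C before imaging.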

What follows are sequences tested on ATP (assay: switch fluorescence ratio, 500 uM ATP over buffer (Cy3 cluster intensity, sum of 5 cycles each) (fold (ratio)); higher = stronger signal-on switching upon ATP binding; sequences stand for … in TCGTCGGCAGCGTCAGATGTGTATAAGAGACAGTTTTTTTTTTTTTTTTTTTTTTTTT…TC). Conditions: aptamer strand: ATP DNA aptamer (quencher-CACCTGGGGGAGTATTGCGGAGGAAGG + anchor), 100 nM annealed; ATP concentration: 500 uM.
How it was run: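 The quencher-labelled ATP aptamer, at 100 nM, was annealed to Cy3-labelled switching-strand clusters on a modified Illumina MiSeq flow-cell. The clusters were imaged in selection buffer, then after 15 min with 500 uM ATP at 22 °C, and this buffer/ATP cycle ran five times with NaOH stripping and re-annealing between runs. Per-cluster fluorescence ratios, summed target-cycle over summed buffer-cycle Cy3 intensity, were averaged per switch-domain sequence. Clusters outside 100-1000 RFU were excluded.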
ATGGAAAAAG was tested, and the switch fluorescence ratio was 0.963 ± 0.046.
ATGGAAAAGA gave a switch fluorescence ratio of 0.978 ± 0.016.
In the case of ATGGAAAGCA, the switch fluorescence ratio is reported as 1.05 ± 0.029.
With ATGGAAATGG the switch fluorescence ratio was 0.996 ± 0.024.
ATGGAAGGTT gave a switch fluorescence ratio of 0.991 ± 0.033.
ATGGACCTGC gave a switch fluorescence ratio of 1.06 ± 0.064.
ATGGACGCTA showed a switch fluorescence ratio of 1.12 ± 0.048.
ATGGACGGGT was tested, and the switch fluorescence ratio was 0.996 ± 0.03.
For ATGGAGGCGT, the switch fluorescence ratio was 0.994 ± 0.015.
Work on ATGGATAAGA yielded a switch fluorescence ratio of 1 ± 0.014.
With ATGGATGTGG the switch fluorescence ratio was 0.979 ± 0.055.
For ATGGATGTTA, the switch fluorescence ratio was 0.978 ± 0.032.
Work on ATGGATTTGC yielded a switch fluorescence ratio of 1.02 ± 0.081.
For ATGGCACCGG, the switch fluorescence ratio was 1.018 ± 0.0069.
Work on ATGGCAGGCA yielded a switch fluorescence ratio of 0.9929 ± 0.0054.
Work on ATGGCCGAGT yielded a switch fluorescence ratio of 1.03 ± 0.038.
ATGGCTAATA showed a switch fluorescence ratio of 0.9806 ± 0.0057.
Sequence ATGGCTACCG has a switch fluorescence ratio of 1.01 ± 0.033.
In the case of ATGGGAGAAT, the switch fluorescence ratio is reported as 0.9801 ± 0.009.
Work on ATGGGAGGCG yielded a switch fluorescence ratio of 0.982 ± 0.043.
For ATGGGATGGC, the switch fluorescence ratio was 0.97 ± 0.031.
ATGGGATTAA showed a switch fluorescence ratio of 1.032 ± 0.0025.
For ATGGGCAGTC, the switch fluorescence ratio was 1.21 ± 0.41.
In the case of ATGGGCCCAT, the switch fluorescence ratio is reported as 1.01 ± 0.011.
Sequence ATGGGCGATG has a switch fluorescence ratio of 1.01 ± 0.055.
ATGGGCGGGT was tested, and the switch fluorescence ratio was 1 ± 0.035.
In the case of ATGGGCTGAA, the switch fluorescence ratio is reported as 1.021 ± 0.0092.
For ATGGGGAAAT, the switch fluorescence ratio was 0.984 ± 0.021.
In the case of ATGGGGACGG, the switch fluorescence ratio is reported as 1.013 ± 0.0035.
In the case of ATGGGGATCA, the switch fluorescence ratio is reported as 1.017 ± 0.0022.
For ATGGGGATTA, the switch fluorescence ratio was 0.9956 ± 0.0092.
With ATGGGGATTT the switch fluorescence ratio was 0.991 ± 0.01.
For ATGGGGGAAA, the switch fluorescence ratio was 0.991 ± 0.011.
ATGGGGGAAC gave a switch fluorescence ratio of 0.975 ± 0.011.
ATGGGGGCCA gave a switch fluorescence ratio of 0.974 ± 0.019.
With ATGGGGGGAT the switch fluorescence ratio was 1.23 ± 0.58.
Sequence ATGGGGGGGC has a switch fluorescence ratio of 1.01 ± 0.022.
ATGGGGGGGT was tested, and the switch fluorescence ratio was 0.999 ± 0.025.
With ATGGGGGGTA the switch fluorescence ratio was 0.986 ± 0.044.
Work on ATGGGGGGTC yielded a switch fluorescence ratio of 0.985 ± 0.041.
In the case of ATGGGGGTAA, the switch fluorescence ratio is reported as 1.01 ± 0.024.
ATGGGGGTCA was tested, and the switch fluorescence ratio was 0.998 ± 0.015.
ATGGGGGTTA gave a switch fluorescence ratio of 0.987 ± 0.04.
Work on ATGGGGTGTC yielded a switch fluorescence ratio of 0.943 ± 0.067.
Sequence ATGGGTAGTT has a switch fluorescence ratio of 0.977 ± 0.022.
With ATGGGTATTG the switch fluorescence ratio was 1.009 ± 0.0039.
Work on ATGGGTCCAG yielded a switch fluorescence ratio of 1.01 ± 0.019.
ATGGGTCTCG was tested, and the switch fluorescence ratio was 0.966 ± 0.019.
Sequence ATGGTAGCAA has a switch fluorescence ratio of 2.05 ± 0.14.
Work on ATGGTATTTG yielded a switch fluorescence ratio of 0.998 ± 0.037.
In the case of ATGGTCGCGG, the switch fluorescence ratio is reported as 0.985 ± 0.035.
ATGGTCTTTT showed a switch fluorescence ratio of 1.014 ± 0.0032.
Sequence ATGGTGAGGA has a switch fluorescence ratio of 0.995 ± 0.018.
In the case of ATGGTGCGGA, the switch fluorescence ratio is reported as 0.956 ± 0.06.
In the case of ATGGTGCGGT, the switch fluorescence ratio is reported as 0.987 ± 0.02.
ATGGTGGGGA showed a switch fluorescence ratio of 1.03 ± 0.03.
Work on ATGGTGGTTT yielded a switch fluorescence ratio of 0.998 ± 0.063.
ATGGTGTTAT showed a switch fluorescence ratio of 0.989 ± 0.014.
In the case of ATGGTTGAGG, the switch fluorescence ratio is reported as 0.987 ± 0.031.
ATGGTTTCGA was tested, and the switch fluorescence ratio was 0.982 ± 0.04.
Sequence ATGGTTTCGC has a switch fluorescence ratio of 0.9932 ± 0.0067.
In the case of ATGGTTTCTT, the switch fluorescence ratio is reported as 1 ± 0.034.
Work on ATGTAAAATT yielded a switch fluorescence ratio of 0.972 ± 0.038.
With ATGTAACTAT the switch fluorescence ratio was 1.03 ± 0.021.
ATGTAAGATT was tested, and the switch fluorescence ratio was 0.9891 ± 0.0047.
ATGTAATCAC was tested, and the switch fluorescence ratio was 1.04 ± 0.049.
With ATGTAATTCG the switch fluorescence ratio was 1.002 ± 0.0086.
With ATGTAGCGAC the switch fluorescence ratio was 1.44 ± 0.39.
In the case of ATGTAGGAAC, the switch fluorescence ratio is reported as 0.999 ± 0.012.
ATGTAGGTTA gave a switch fluorescence ratio of 0.987 ± 0.018.
ATGTAGTTCC showed a switch fluorescence ratio of 1.064 ± 0.0022.
With ATGTATGATA the switch fluorescence ratio was 0.967 ± 0.013.
ATGTATGTTA was tested, and the switch fluorescence ratio was 0.978 ± 0.055.
For ATGTATTTAT, the switch fluorescence ratio was 1.04 ± 0.061.
Sequence ATGTCAGGAA has a switch fluorescence ratio of 1.02 ± 0.041.
For ATGTCCCGGT, the switch fluorescence ratio was 0.974 ± 0.025.
